From the supplement of paper PMC10567573 come the findings set out here.

To fix the notation:
B1: SMOC2 (parent)
chain: QKPLCASDGRTFLSRCEFQRAKCK
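Further: lentivirally expressed fusions sorted by FACS into six bins by GFP to DsRed ratio, PSI derived from sequencing read proportions per bin multiplied by bin number.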

The series covers variants of B1. In words: protein stability index of a GFP-peptide fusion (GPS, HEK-293T) (PSI 1-6); higher = more stable. As to conditions: c terminus: a fixed tail appended.
As to QKPLCASDGRTFLSRCENQRAKCK [F18N], the protein stability index came to 4.19.
With QKPLCASDGRTFLSRCEKQRAKCK [F18K], the protein stability index amounted to 4.62.
The result for QKPLCASDGRTFLSRCEGQRAKCK [F18G] reads 4.44; that for QKPLCASDGRTFLSRCEWQRAKCK [F18W], 1.6.
In the case of QKPLCASDGRTFLSRCEDQRAKCK [F18D], the protein stability index was determined as 4.12.
As to QKPLCASDGRTFLSRCESQRAKCK [F18S], the protein stability index turned out to be 3.82.
The result for QKPLCASDGRTFLSRCERQRAKCK [F18R] reads 4.37; that for QKPLCASDGRTFLSRCEEQRAKCK [F18E], 4.73; that for QKPLCASDGRTFLSRCEYQRAKCK [F18Y], 2.21.
The result for QKPLCASDGRTFLSRKEFQRAKCK [C16K] reads 3.9; that for QKPLCASDGRTFLSRNEFQRAKCK [C16N], 4.28.
As for QKPLCASDGRTFLSRIEFQRAKCK [C16I], the protein stability index worked out at 1.79.
The result for QKPLCASDGRTFLSRYEFQRAKCK [C16Y] reads 3.06; that for QKPLCASDGRTFLSRAEFQRAKCK [C16A], 3.39; that for QKPLCASDGRTFLSRPEFQRAKCK [C16P], 3.57.
The result for QKPLCASDGRTFLSRDEFQRAKCK [C16D] reads 4.62.
The result for QKPLCASDGRTFLSRLEFQRAKCK [C16L] reads 2.55; that for QKPLCASDGRTFLSRTEFQRAKCK [C16T], 3.96; that for QKPLCASDGRTFLSRVEFQRAKCK [C16V], 2.61.
On to QKPLCASDGRTFLSRSEFQRAKCK [C16S], for which the protein stability index was 3.83.
Turning to QKPLCASDGRTFLSREEFQRAKCK [C16E], the protein stability index came out at 4.62.
In the case of QKPLCASDGRTFLSRHEFQRAKCK [C16H], the protein stability index was 4.04.
The same measure for QKPLCASDGRTFLSRGEFQRAKCK [C16G]: 4.3; for QKPLCASDGRTFLSRMEFQRAKCK [C16M]: 3.43.
The same measure for QKPLCASDGRTFLSRWEFQRAKCK [C16W]: 2.89; for QKPLCASDGRTFLSRREFQRAKCK [C16R]: 4.44; for QKPLCASDGRTFLSRFEFQRAKCK [C16F]: 3.86.
The same measure for QKPLCASDGRTFLSRCEFQRAKFK [C23F]: 1.88; for QKPLCASDGRTFLSRCEFQRAKKK [C23K]: 4.07; for QKPLCASDGRTFLSRCEFQRAKIK [C23I]: 3.41.
Turning to QKPLCASDGRTFLSRCEFQRAKMK [C23M], the protein stability index was found to be 3.15.
The result for QKPLCASDGRTFLSRCEFQRAKAK [C23A] reads 2.9; that for QKPLCASDGRTFLSRCEFQRAKHK [C23H], 3.92.
The result for QKPLCASDGRTFLSRCEFQRAKGK [C23G] reads 3.62.
The result for QKPLCASDGRTFLSRCEFQRAKLK [C23L] reads 3.03; that for QKPLCASDGRTFLSRCEFQRAKEK [C23E], 3.32; that for QKPLCASDGRTFLSRCEFQRAKDK [C23D], 3.92.
Take QKPLCASDGRTFLSRCQFQRAKCK [E17Q]: the protein stability index turned out to be 4.38.
As for QKPLCASDGRTFLSRCCFQRAKCK [E17C], the protein stability index stood at 2.74.
Take QKPLCASDGRTFLSRCTFQRAKCK [E17T]: the protein stability index was 3.3.
Consider QKPLCASDGRTFLSRCPFQRAKCK [E17P], for which the protein stability index is 3.07.
The result for QKPLCASDGRTFLSRCMFQRAKCK [E17M] reads 2.6.
The same measure for QKPLCASDGRTFLSRCHFQRAKCK [E17H]: 2.84; for QKPLCASDGRTFLSRCGFQRAKCK [E17G]: 2.26.
The same measure for QKPLCASDGRTFLSRCNFQRAKCK [E17N]: 3.29; for QKPLCASDGRTFLSRCWFQRAKCK [E17W]: 1.54; for QKPLCASDGRTFLSRCFFQRAKCK [E17F]: 2.32.
In the case of QKPLCASDGRTFLSRCRFQRAKCK [E17R], the protein stability index was determined as 3.5.
The result for QKPLCASDGRTFLSRCAFQRAKCK [E17A] reads 3.31; that for QKPLCASDGRTFLSRCLFQRAKCK [E17L], 2.29.
The same measure for QKPLCASDGRTFLSRCYFQRAKCK [E17Y]: 3.05; for QKPLCASDGRTFLSRCVFQRAKCK [E17V]: 2.82; for QKPLCASDGRTFLSRCSFQRAKCK [E17S]: 2.68.
The result for QKPLCASDGRTFLSRCDFQRAKCK [E17D] reads 2.11; that for QKPLCASDGRTFLSRCKFQRAKCK [E17K], 3.19; that for QKPLCASDGRTFLSRCIFQRAKCK [E17I], 3.15.
QKPLCASDGRTFLSRCEFQYAKCK [R20Y]: the protein stability index is 2.62.
Turning to QKPLCASDGRTFLSRCEFQKAKCK [R20K], the protein stability index was found to be 3.47.
The result for QKPLCASDGRTFLSRCEFQSAKCK [R20S] reads 3.19.
The result for QKPLCASDGRTFLSRCEFQLAKCK [R20L] reads 3.01; that for QKPLCASDGRTFLSRCEFQTAKCK [R20T], 3.83.
The result for QKPLCASDGRTFLSRCEFQDAKCK [R20D] reads 4.16; that for QKPLCASDGRTFLSRCEFQMAKCK [R20M], 3.57.
Take QKPLCASDGRTFLSRCEFQEAKCK [R20E]: the protein stability index came out at 3.45.
The result for QKPLCASDGRTFLSRCEFQWAKCK [R20W] reads 2.4.
With QKPLCASDGRTFLSRCEFQPAKCK [R20P], the protein stability index is 3.61.
QKPLCASDGRTFLSRCEFQCAKCK [R20C]: the protein stability index stood at 3.45.
For QKPLCASDGRTFLSRCEFQAAKCK [R20A], the protein stability index amounted to 3.14.
The same measure for QKPLCASDGRTFLSRCEFQIAKCK [R20I]: 3.39.
In the case of QKPLCASDGRTFLSRCEFQGAKCK [R20G], the protein stability index came out at 3.58.
The same measure for QKPLCASDGRTFLSRCEFQHAKCK [R20H]: 2.77; for QKPLCASDGRTFLSRCEFQNAKCK [R20N]: 3.1; for QKPLCASDGRTFLSRCEFQVAKCK [R20V]: 2.9.
The same measure for QKPLCASDGRTFLSRCEFQFAKCK [R20F]: 2.29.
The same measure for QKPLCASDGRTFLSRCEFQQAKCK [R20Q]: 3.52; for QKPLCASDGRTFLSRCEFQREKCK [A21E]: 3.1; for QKPLCASDGRTFLSRCEFQRCKCK [A21C]: 3.48.
Turning to QKPLCASDGRTFLSRCEFQRVKCK [A21V], the protein stability index is 2.96.
The result for QKPLCASDGRTFLSRCEFQRMKCK [A21M] reads 2.88.
Turning to QKPLCASDGRTFLSRCEFQRHKCK [A21H], the protein stability index turned out to be 2.7.
The result for QKPLCASDGRTFLSRCEFQRRKCK [A21R] reads 3.18.
The result for QKPLCASDGRTFLSRCEFQRLKCK [A21L] reads 2.48; that for QKPLCASDGRTFLSRCEFQRQKCK [A21Q], 3.24; that for QKPLCASDGRTFLSRCEFQRFKCK [A21F], 2.44.
On to QKPLCASDGRTFLSRCEFQRSKCK [A21S], for which the protein stability index amounted to 3.14.
The same measure for QKPLCASDGRTFLSRCEFQRPKCK [A21P]: 3.98; for QKPLCASDGRTFLSRCEFQRTKCK [A21T]: 3.4.
For QKPLCASDGRTFLSRCEFQRWKCK [A21W], the protein stability index stood at 1.85.
With QKPLCASDGRTFLSRCEFQRYKCK [A21Y], the protein stability index was 2.58.
The same measure for QKPLCASDGRTFLSRCEFQRKKCK [A21K]: 3.9; for QKPLCASDGRTFLSRCEFQRDKCK [A21D]: 3.17; for QKPLCASDGRTFLSRCEFQRGKCK [A21G]: 3.68.
In the case of QKPLCASDGRTFLSRCEFQRIKCK [A21I], the protein stability index is 3.14.
The same measure for QKPLCASDGRTFLSRCEFQRNKCK [A21N]: 2.68.
